Laboratory results as given in patent publication US20230023414A1, “METHODS AND DEVICES FOR TREATING A DISEASE WITH BIOTHERAPEUTICS” (PROGENITY, INC., priority 2018, published 2023).
“And” between values parts separate entries of the source, which are not always exact repeats. Equal values may be shown once. Read-outs that look alike come from different tables or passages of the source. Marks after values point to notes of the source that are not given here.

How the values were obtained:
[1] = cited from earlier work; for Baseline dose: Bioavail.: dose info for non-approved agents from clinical trial information
[2] = pig, in vivo; for (AUC)T0-T240 h ± SEM / Tmax: 1.2 mg
[3] = Pharmacokinetics (blood insulin) of regular human insulin (NOVOLIN R) after subcutaneous or intra-jejunal jet delivery in swine; type: in vivo, Yorkshire female swine; settings: for Cmax / Tmax: blood insulin
Method: A total of 18 Yorkshire female swine in good health and weighing 60-70 kg each were included in this study. Swine were divided into two groups with 9 animals per group. […] A sham surgical laparotomy was performed. […] The jet delivery device was configured with the single nozzle in an axial orientation.
Swine were divided into two groups with 9 animals per group. […] In all 18 animals, a laparotomy procedure was performed to expose the abdominal cavity. Animals remained under anesthesia during the entire procedure for the PK/PD study.
For the laparotomy in group 02, a small segment of the jejunal mucosa and serosa was exposed by midline laparotomy and the jet delivery device was inserted through antimesenteric incision.
(§1) Blood samples were kept on wet ice until centrifugation and separation of plasma. […] Glucose was monitored every five (5) minutes during the study by portable glucose analyzer (StatStrip (SS) hospital glucose monitoring system (Nova Biomedical, Waltham, Mass.)). At each time point, approximate 0.1 mL of blood was drawn and immediately placed on a glucose monitoring test strip, and the whole blood glucose concentration was measured by the SS in triplicate.
The animals were anesthetized for the entire ECP.

blood glucose = assay: Euglycemic clamp procedure: blood glucose and dextrose infusion after NOVOLIN R SC or IJ in swine; type: in vivo, Yorkshire female swine; settings: for mean blood glucose level: euglycemic clamp, swine
Method: A total of 18 Yorkshire female swine in good health and weighing 60-70 kg each were included in this study. Swine were divided into two groups with 9 animals per group. […] A sham surgical laparotomy was performed. […] The jet delivery device was configured with the single nozzle in an axial orientation. The device was held in place during the laparotomy insertion, and the nozzle outlet was directed to face the jejunal wall to direct the jet of the NOVOLIN® R to the GI tract.
as §1
A euglycemic clamp procedure (ECP) was employed to compare pharmacokinetics and pharmacodynamics of regular human Insulin (NOVOLIN® R) delivered subcutaneously (SC) in the neck versus intra-jejunally (IJ) by the jet delivery device in the small intestine. ECP was used to quantify the amount of glucose required to maintain normoglycemia after exogenous bolus of insulin. […] The animals were anesthetized for the entire ECP.

[4] = cited from earlier work
[5] = IJ administration by jet delivery device, swine, Average
[6] = IJ administration by jet delivery device, swine, individual animals
[7] = SC administration, swine, Average
[8] = SC administration, swine, individual animals

## CC[C@H](C)[C@H](NC(=O)[C@H](Cc1ccccc1)NC(=O)[C@H](CCC(=O)O)NC(=O)[C@H](CCCCNC(=O)COCCOCCNC(=O)COCCOCCNC(=O)CC[C@H](NC(=O)CCCCCCCCCCCCCCCCC(=O)O)C(=O)O)NC(=O)[C@H](C)NC(=O)[C@H](C)NC(=O)[C@H](CCC(N)=O)NC(=O)CNC(=O)[C@H](CCC(=O)O)NC(=O)[C@H](CC(C)C)NC(=O)[C@H](Cc1ccc(O)cc1)NC(=O)[C@H](CO)NC(=O)[C@H](CO)NC(=O)[C@@H](NC(=O)[C@H](CC(=O)O)NC(=O)[C@H](CO)NC(=O)[C@@H](NC(=O)[C@H](Cc1ccccc1)NC(=O)[C@@H](NC(=O)CNC(=O)[C@H](CCC(=O)O)NC(=O)C(C)(C)NC(=O)[C@@H](N)Cc1cnc[nH]1)[C@@H](C)O)[C@@H](C)O)C(C)C)C(=O)N[C@@H](C)C(=O)N[C@@H](Cc1c[nH]c2ccccc12)C(=O)N[C@@H](CC(C)C)C(=O)N[C@H](C(=O)N[C@@H](CCCNC(=N)N)C(=O)NCC(=O)N[C@@H](CCCNC(=N)N)C(=O)NCC(=O)O)C(C)C [Semaglutide]
[1]; SC administration
  Approved Dosing Info: Bio Avail: 89%

## CC[C@H](C)[C@H](NC(=O)[C@H](CCC(=O)O)NC(=O)[C@H](CO)NC(=O)[C@@H](NC(=O)[C@@H](N)CO)C(C)C)C(=O)N[C@@H](CCC(N)=O)C(=O)N[C@@H](CC(C)C)C(=O)N[C@@H](CCSC)C(=O)N[C@@H](Cc1cnc[nH]1)C(=O)N[C@@H](CC(N)=O)C(=O)N[C@@H](CC(C)C)C(=O)NCC(=O)N[C@@H](CCCCN)C(=O)N[C@@H](Cc1cnc[nH]1)C(=O)N[C@@H](CC(C)C)C(=O)N[C@@H](CC(N)=O)C(=O)N[C@@H](CO)C(=O)N[C@@H](CCSC)C(=O)N[C@@H](CCC(=O)O)C(=O)N[C@@H](CCCN=C(N)N)C(=O)N[C@H](C(=O)N[C@@H](CCC(=O)O)C(=O)N[C@@H](Cc1c[nH]c2ccccc12)C(=O)N[C@@H](CC(C)C)C(=O)N[C@@H](CCCN=C(N)N)C(=O)N[C@@H](CCCCN)C(=O)N[C@@H](CCCCN)C(=O)N[C@@H](CC(C)C)C(=O)N[C@@H](CCC(N)=O)C(=O)N[C@@H](CC(=O)O)C(=O)N[C@H](C(=O)N[C@@H](Cc1cnc[nH]1)C(=O)N[C@@H](CC(N)=O)C(=O)N[C@@H](Cc1ccccc1)C(=O)O)C(C)C)C(C)C [teriparatide]
[1]; SC administration
  Approved Dosing Info: Bio Avail: 95%

## Dulaglutide: long-acting GLP-1 receptor agonist, about 63 kDa; GLP-1 analogue linked to modified human IgG4 Fc; TRULICITY solution 3 mg/mL
[1]; SC administration
  Approved Dosing Info: Bio Avail: 65%
[2]
  AUCID (±SEM): 3890.00 ± 94.73 ng·h/mL
  Bioavailability relative to SC: 49.11 ± 0.08% ^a
  (AUC)T0-T240 h ± SEM: 4355.86 ± 1094.57 ^a ng · hr/mL
  Tmax: 8 h
[2]; iv
  Bioavailability relative to IV: 100%
  (AUC)T0-T240 h ± SEM: 16429.33 ± 600.93 ng·h/mL
  Tmax: 1 h
[2]; sc
  Bioavailability relative to SC: 100%
  (AUC)T0-T240 h ± SEM: 8869 ± 887.33 ng·h/mL
  Tmax: 6 h

## Novolin® R: regular human insulin (recombinant), aqueous solution 100 units/mL with glycerol, metacresol, zinc chloride, pH 7.4
[3]; animal 18P18, SC administration group
  blood insulin level: significantly higher than the rest of the animals in the group
[3]; [5]
  Cmax: 77.40 uIU/mL
  Tmax: 55.63 min
[3]; [6]
  Cmax: 40.93 uIU/mL and 96.77 uIU/mL and 5.03 uIU/mL and 7.96 uIU/mL and 48.77 uIU/mL and 85.38 uIU/mL and 207.96 uIU/mL and 126.39 uIU/mL
  Tmax: 20 min and 50 min and 90 min (2×) and 40 min (3×)
[3]; [7]
  Cmax: 202.94 uIU/mL
  Tmax: 87.14 min
[3]; [8]
  Cmax: 451.00 uIU/mL and 60.74 uIU/mL and 354.00 uIU/mL and 356.60 uIU/mL and 65.71 uIU/mL and 59.18 uIU/mL and 73.34 uIU/mL
  Tmax: 50 min (2×) and 180 min and 105 min and 30 min and 120 min
[3]; jejunum administration group
  time to maximum plasma concentration (Tmax): 0.9272 h
[3]; subcutaneous administration group
  time to maximum plasma concentration (Tmax): 1.452 h
[3]; swine
  maximum plasma concentration Cmax, SC group versus IJ group: higher than that of the IJ administration group
[3]; swine, AUC0-420 min
  AUC of blood insulin, SC group versus IJ group: higher than that of the IJ administration group
Blood glucose; 75 minutes to 420 minutes post-administration
  mean dextrose infusion rate, IJ versus SC group: higher in the SC administration group
Blood glucose; IJ administration group (jet delivery device)
  mean blood glucose level: 89.6 mg/dL
Blood glucose; SC administration group
  mean blood glucose level: 83.5 mg/dL
Blood glucose; first 70 minutes after administration
  mean dextrose infusion rate, IJ versus SC group: higher in the IJ administration group

## alirocumab
[1]; SC administration
  Approved Dosing Info: Bio Avail: 85%

## certolizumab pegol
[1]; SC administration
  Approved Dosing Info: Bio Avail: 80%

## dalteparin
[1]; SC injection
  bioavailability by SC injection: approximately 87%
[1]; in vivo
  half-life: 3 to 5 h
[4]
  stability at room temperature: stable at room temperature

## denosumab
[1]; SC administration
  Approved Dosing Info: Bio Avail: 61%

## etanercept
[1]; SC administration
  Approved Dosing Info: Bio Avail: 58%

## glucagon (SC)
[1]; SC administration
  Baseline dose: Bioavail.: 100.0%

## golimumab
[1]; SC administration
  Approved Dosing Info: Bio Avail: 51%

## natalizumab
[1]; IV administration
  Approved Dosing Info: Bio Avail: 100%

## sargramostim
[1]; IV administration
  Approved Dosing Info: Bio Avail: 100%

## secukinumab
[1]; SC administration
  Approved Dosing Info: Bio Avail: 73%

## somatropin
[1]; SC administration
  Baseline dose: Bioavail.: 80.5%

## tocilizumab
[1]; SC administration
  Approved Dosing Info: Bio Avail: 80%

## ustekinumab
[1]; SC administration
  Approved Dosing Info: Bio Avail: 78%

## vedolizumab
[1]; IV administration
  Approved Dosing Info: Bio Avail: 100%
